# Values quoted from earlier work, collected in paper PMC6540754.
# Target: BfrB (Pseudomonas aeruginosa) (UniProt Q9HY79)
# Chain of UniProt Q9HY79 (Q9HY79 whole entry): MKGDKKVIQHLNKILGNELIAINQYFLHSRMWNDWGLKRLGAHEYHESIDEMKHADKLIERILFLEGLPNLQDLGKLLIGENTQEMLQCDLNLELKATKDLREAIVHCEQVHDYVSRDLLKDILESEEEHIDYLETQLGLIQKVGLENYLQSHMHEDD
substance,measurement,value
Bfd (from UniProt Q9HY80),Kd,3.4 µM
